The results in this text go back to paper PMC2700067, “Intracellular interactions between APOBEC3G, RNA, and HIV-1 Gag: APOBEC3G multimerization is dependent on its association with RNA” (Retrovirology, 2009).

Holding throughout (test): split reporter (BiFC, NanoBiT); BiFC quantified by flow cytometry: 293T cells co-transfected with 0.25 μg of each BiFC construct and mRFP1, harvested about 14 h after transfection and fixed; percent of mRFP+ cells that are YFP+, and mean intensity of YFP+ cells
What all share (details): partners not purified

In one assay the target is T1, H65R-CY (human, UniProt Q9HC16 1-384, H65R).
T1 construct: APOBEC3G (A3G), human, CD1 mutant H65R; as A3G-CY with the mutation; also called CD1 mutant H65R of A3G-CY; source: HeLa and 293T cells, transfected, in living cells; 293T, transfected, in lysate (co-IP); not shown: CY (YFP residues 173-238), C-terminal, kept

The next assay has as its target T2, F70A-CY (human, UniProt Q9HC16 1-384, F70A).
T2 construct: APOBEC3G (A3G), human, CD1 mutant F70A; as A3G-CY with the mutation; also called CD1 mutant F70A of A3G-CY; source: HeLa and 293T cells, transfected, in living cells; 293T, transfected, in lysate (co-IP); not shown: CY (YFP residues 173-238), C-terminal, kept

For a further assay, the target named is T3, Y91A-CY (human, UniProt Q9HC16 1-384, Y91A).
T3 construct: APOBEC3G (A3G), human, CD1 mutant Y91A; as A3G-CY with the mutation; also called CD1 mutant Y91A of A3G-CY; source: HeLa and 293T cells, transfected, in living cells; not shown: CY (YFP residues 173-238), C-terminal, kept

B1: H65R-NY (natural protein, human, UniProt Q9HC16 1-384, looked up)
chain: MKPHFRNTVERMYRDTFSYNFYNRPILSRRNTVWLCYEVKTKGPSRPPLDAKIFRGQVYSELKYRPEMRFFHWFSKWRKLHRDQEYEVTWYISWSPCTKCTRDMATFLAEDPKVTLTIFVARLYYFWDPDYQEALRSLCQKRDGPRATMKIMNYDEFQHCWSKFVYSQRELFEPWNNLPKYYILLHIMLGEILRHSMDPPTFTFNFNNEPWVRGRHETYLCYEVERMHNDTWVLLNQRRGFLCNQAPHKHGFLEGRHAELCFLDVIPFWKLDLDQDYRVTCFTSWSPCFSCAQEMAKFISKNKHVSLCIFTARIYDDQGRCQEGLRTLAEAGAKISIMTYSEFKHCWDTFVDHQGCPFQPWDGLDEHSQDLSGRLRAILQNQEN
notes: APOBEC3G (A3G), human, CD1 mutant H65R; as A3G-NY with the mutation; also called CD1 mutant H65R of A3G-NY; source: HeLa and 293T cells, transfected, in living cells; not shown: NY (YFP residues 1-172), C-terminal, kept
In the case of B1, in the assay with H65R-CY, the “percent of mRFP+ cells that are YFP+ (BiFC)” value (from here on “percent”) is below 0.1%.

B2: F70A-NY (natural protein, human, UniProt Q9HC16 1-384, looked up)
chain: MKPHFRNTVERMYRDTFSYNFYNRPILSRRNTVWLCYEVKTKGPSRPPLDAKIFRGQVYSELKYHPEMRAFHWFSKWRKLHRDQEYEVTWYISWSPCTKCTRDMATFLAEDPKVTLTIFVARLYYFWDPDYQEALRSLCQKRDGPRATMKIMNYDEFQHCWSKFVYSQRELFEPWNNLPKYYILLHIMLGEILRHSMDPPTFTFNFNNEPWVRGRHETYLCYEVERMHNDTWVLLNQRRGFLCNQAPHKHGFLEGRHAELCFLDVIPFWKLDLDQDYRVTCFTSWSPCFSCAQEMAKFISKNKHVSLCIFTARIYDDQGRCQEGLRTLAEAGAKISIMTYSEFKHCWDTFVDHQGCPFQPWDGLDEHSQDLSGRLRAILQNQEN
notes: APOBEC3G (A3G), human, CD1 mutant F70A; as A3G-NY with the mutation; also called CD1 mutant F70A of A3G-NY; source: HeLa and 293T cells, transfected, in living cells; not shown: NY (YFP residues 1-172), C-terminal, kept
On to B2, for which the “percent” value in the assay with F70A-CY is below 0.1%.

B3: Y91A-NY (natural protein, human, UniProt Q9HC16 1-384, looked up)
chain: MKPHFRNTVERMYRDTFSYNFYNRPILSRRNTVWLCYEVKTKGPSRPPLDAKIFRGQVYSELKYHPEMRFFHWFSKWRKLHRDQEYEVTWAISWSPCTKCTRDMATFLAEDPKVTLTIFVARLYYFWDPDYQEALRSLCQKRDGPRATMKIMNYDEFQHCWSKFVYSQRELFEPWNNLPKYYILLHIMLGEILRHSMDPPTFTFNFNNEPWVRGRHETYLCYEVERMHNDTWVLLNQRRGFLCNQAPHKHGFLEGRHAELCFLDVIPFWKLDLDQDYRVTCFTSWSPCFSCAQEMAKFISKNKHVSLCIFTARIYDDQGRCQEGLRTLAEAGAKISIMTYSEFKHCWDTFVDHQGCPFQPWDGLDEHSQDLSGRLRAILQNQEN
notes: APOBEC3G (A3G), human, CD1 mutant Y91A; as A3G-NY with the mutation; also called CD1 mutant Y91A of A3G-NY; source: HeLa and 293T cells, transfected, in living cells; not shown: NY (YFP residues 1-172), C-terminal, kept
With B3, the “percent” value with Y91A-CY was below 0.1%.
